Data published in PMC12265162, “A single residue change only differing by an atomic group can drive imprinting to influenza” (Research Square, 2025).

B1: NI04359_d30_245 Fab (Fab, V domains shown)
VH: EVQLVESGGGLFKPGGSLRLSCAASGFTFRNAWMSWVRQAPGKGLEWVGRIKSKADGGTTDYAASVKGRFTISRDDSKNTLYLHMNSLKTEDTAVYYCTTPPEIAVVAAAMRDYYYGLDVWGPGTTVTVSS
VL: SYELTQPVSVSVALGQTARITCGGNNIGSKSLHWYQQKPGQAPVLVIYRDNNRPSGIPERFSGSNSGNTATLTISRAQAGDEADYYCQVWDSSTYVVFGGGTRLTVL
notes: also called mAb NI04359_d30_245; source: Expi293F, co-transfected, Fab purified from supernatant (Ni-NTA agarose)
B2: NI06063_d30_103 mAb (human IgG1) (antibody, V domains shown)
VH: QVHLVESGGGVVQPGRSLRLSCAASGFTFSNYGMHWVRQAPGKGLEWVAFISYDGSNEYYADSVKGRFTISRDYSKYTLYLQMNSLRAEDTAVYYCAKDGQWLVRGAFDFWGQGTMVTVSS
VL: QSALTQPASVSGSPGQSITISCSGTGSDVGSSHLVSWYQHHPGKAPKLMIFEVSKRPLGVSNRFSGSKSGNTASLTISGLQTEDEADYYCCSYAGGRGVFGGGTKLTVL
notes: IgG1; also called mAb d30_103
B3: NI01056_d30_604 Fab (Fab, V domains shown)
VH: QVQLQESGPGLVKPSETLSLTCTVSGGSISNYYWTWIRQPPGKGLEWIGYMYDSGNTKYNSSLRSRLTMSLDTSKNQFSLKMRSVTAADTAVYYCARGGGVRNLLGLRFVSDYMDVWGKGTTVTVSS
VL: DIQMTQSPSTLSASVGDRVTITCRASQSISSWLAWYQQKPGKAPHLLIYQASSLETGVPSRFSGSGSGTEFTLTISSLQPDDFATYYCQQYNTYSSTFGQGTQLQIK
notes: also called mAb NI01056_d30_604; source: Expi293F, co-transfected, Fab purified from supernatant (Ni-NTA agarose)

How the values were obtained:
Conditions in all cases: both partners purified
[1] = target: T1, H1N1 A/Solomon Islands/3/2006 HA protein (Influenza A virus A/Solomon …, strain); assay: cryo-EM structure
T1 construct: source: purified

[2] = target: A/New Caledonia/20/1999 (NC99) H1 hemagglutinin, recombinant (Influenza A virus A/New …, UniProt Q6WG00, strain, biotin on the AviTag); assay: ELISA
[3] = target: A/Brisbane/59/2007 H1 hemagglutinin, recombinant (Influenza A virus A/Brisbane/59/2007 …, UniProt D5F1Q8, strain, biotin on the AviTag); assay: ELISA
[4] = target: A/USSR/90/1977 H1 hemagglutinin, recombinant (Influenza A virus A/USSR/90/1977 (H1N1), UniProt P03453, strain, biotin on the AviTag); assay: ELISA

Binder | binding result [1] | binding result [2] | binding result [3] | binding result [4]
B1 | binds |  |  | 
B2 |  | no binding | no binding | no binding
B3 | binds |  |  | 
